In US9993566B2, “SEZ6 modulators and methods of use” (AbbVie Stemcentrx LLC, priority 2013, dated 2018):

B1: SC17.24: murine anti-SEZ6 antibody; duplicate sequence of SC17.2 (antibody, V domains shown)
VH: QVQLQQSDAELVKPGASVKISCKVSGYTFTDHTIHWMKQRPEQGLEWIGYIYPRDGSTKYNEEFKGKATLTADKSSSTAYMQLNSLTSEDSAVYFCARSYSNYFDYWGQGTTLTVSS
VL: DIVMSQSPSSLAVSVGEKVTMSCKSSQSLLYSSNQKSYLAWYQQKPGQSPKLLIYWASTRESGVPDRFTGSGSGTDFTLTISSVQAEDLAVYYCKQSYNLRTFGGGTKLEIK
modifications: Murine SC17.2 VH; Murine SC17.2 VL
B2: SC17.42: murine anti-SEZ6 antibody (antibody, V domains shown)
VH: DVKLVESGGGLVRPGGSLKLSCAASGFTFSRYTMSWVRQTPEKRLEWAATINSGGSNTYYPDSVKGRFTISRDNAKNTLFLQMSSLKSEDTAMYYCTNGNHWGQGTTLTVSS
VL: ENVLTQSPAIMSASPGEKVTMTCSASSSVNYMYWYQQKSSTSPKLWIYDTSKLTSGVPGRFSGSGSGNSYSLTISNMEAEDVATYYCFQGSGYPLTFGSGTKLEIK
modifications: Murine SC17.42 VH; Murine SC17.42 VL
notes: murine anti-SEZ6 antibody
B3: hSC17.46: humanized (CDR grafted) anti-SEZ6 antibody derived from SC17.46 (antibody, V domains shown)
VH: QVQLVQSGAEVKKPGASVKVSCKASGYTFTSYWINWVRQAPGQGLEWIGNIFPDTTTTNYNEKFKGRVTLTRDTSISTAYMELSRLRSDDTAVYYCAREYYDGTYDAMDYWGQGTLVTVSS
VL: AIQMTQSPSSLSASVGDRVTITCKASQSVNNDVAWYQQKPGKAPKLLIYYASNRYTGVPSRFSGSGSGTDFTLTISSLQPEDFATYFCQQDYSSPRTFGQGTKLEIK
modifications: Humanized hSC17.46 VH; Humanized hSC17.46 VL
B4: hSC17.16: humanized (CDR grafted) anti-SEZ6 antibody derived from SC17.16 (antibody, V domains shown)
VH: QVQLVQSGAEVKKPGASVKVSCKASGYTFTDYNMYWVRQAPGQGLEWMGEINPNNGGTAYNQKFRGKVTMTRDTSISTAYMELSRLRSDDTAVYYCARYDKGFDYWGQGTTVTVSS
VL: DIQMTQSPSSLSASVGDRVTITCRASANINSNLVWYQQKPGKAPKLLIYAATNLADGVPSRFSGSGSGTDFTLTISSLQPEDFATYYCQHFWGTPRTFGGGTKLEIK
modifications: Humanized hSC17.16 VH; Humanized hSC17.16 VL
B5: hSC17.28: humanized (CDR grafted) anti-SEZ6 antibody derived from SC17.28 (antibody, V domains shown)
VH: QVQLVQSGAEVKKPGASVKVSCKASGYTFTRSYIHWVRQAPGQGLEWMGYISSGSGGTTYNQKFKGRVTSTRDTSISTAYMELSRLRSDDTAVYYCARGGVRYFDVWGQGTTVTVSS
VL: EIVLTQSPDFQSVTPKEKVTITCRASQSIGTSIHWYQQKPDQSPKLLIKYASESISGVPSRFSGSGSGTDFTLTINSLEAEDAATYYCQQSNSWPLTFGQGTKLEIK
modifications: Humanized hSC17.28 VH; Humanized hSC17.28 VL
B6: hSC17.34: humanized (CDR grafted) anti-SEZ6 antibody derived from SC17.34 (antibody, V domains shown)
VH: QVQLVQSGAEVKKPGASVKVSCKASGYTFTDYNMDWVRQAPGQRLEWIGYIYPDNGGAGYNQKFKGRVTITVDTSASTAYMELSSLRSEDTAVYYCSRSITTAWFAYWGQGTLVTVSS
VL: DIQMTQSPSSLSASVGDRVTITCKASQDINSYLSWFQQKPGKAPKSLIYRANRLVDGVPSRFSGSGSGTDYTLTISSLQPEDFATYYCLQYDEFPPTFGQGTKLEIK
modifications: Humanized hSC17.34 VL
B7: hSC17.17: humanized (CDR grafted) anti-SEZ6 antibody derived from SC17.17 (antibody, V domains shown)
VH: QVQLVQSGAEVKKPGASVKVSCKASGYTFTDYNMHWVRQAPGQGLEWMGEINPNIGGTGYNQKFKGRVTMTRDTSISTAYMELSRLRSDDTAVYYCARTYSYYSYEFAYWGQGTLVTVSS
VL: EIVLTQSPATLSLSPGERATLSCSASSSVSYMHWYQQKPGQAPRLLIYDTSKLPSGIPARFSGSGSGTDFTLTISSLEPEDFAVYYCQQWSSTPPTFGQGTKLEIK
modifications: Humanized hSC17.17 VH; Humanized hSC17.17 VL

Key:
Type in all cases: binding
cynomolgus SEZ6 = assay: Flow cytometry cross reactivity, yeast displaying extracellular domain of cynomolgus SEZ6; conditions: 5 μg/mL antibody
Description: (§1) In this regard flow cytometry was performed using a FACSCanto II as per the manufacturer's instructions in order to confirm that selected SC17 antibody modulators can immunospecifically associate with human SEZ6 and to determine whether the same modulators cross-react with cynomolgus, rat and/or murine SEZ6 in addition to SEZ6L and SEZ6L2. More particularly modulators were tested for cross reactivity to murine SEZ6 and rat SEZ6 by flow cytometry against Neuro2a (ATCC Cat # CCL131), and RIN-m5F (ATCC cat # CRL-11605) cell lines which express mouse SEZ6 and rat SEZ6, respectively. For examining cross reactivity to cynomolgus SEZ6, yeast displaying the extracellular domain of cynomolgus SEZ6 (Boder et al, 1997) were used for flow cytometry analysis.
(§2) Briefly 1×10^5 cells per well of Neuro2a, RIN-5mF, or yeast displaying cynomolgus SEZ6 cells were incubated for 30 minutes with 50 μL PBS (2% FCS) buffer with 5 μg/mL antibody. Cells were washed twice with the same buffer and then incubated with 50 μL per sample DyLight 649 labeled goat-anti-mouse IgG, Fc fragment specific secondary diluted 1:200 in PBS buffer. After incubating for 15 minutes cells were washed twice with the PBS buffer and re-suspended in the same with DAPI for flow cytometry analysis of Neuro2a and Rin-m5F or buffer without DAPI for flow cytometric analysis of yeast cells with cSEZ6.

mouse SEZ6 = molecular target: T1, mouse SEZ6 (Mus musculus, UniProt Q7TSK2); assay: Flow cytometry cross reactivity, Neuro2a cells; conditions: 5 μg/mL antibody
T1 construct: Neuro2a (ATCC Cat # CCL131), and RIN-m5F (ATCC cat # CRL-11605) cell lines which express mouse SEZ6 and rat SEZ6; host or cells: Neuro2a
T1 sequence (Q7TSK2 20-991): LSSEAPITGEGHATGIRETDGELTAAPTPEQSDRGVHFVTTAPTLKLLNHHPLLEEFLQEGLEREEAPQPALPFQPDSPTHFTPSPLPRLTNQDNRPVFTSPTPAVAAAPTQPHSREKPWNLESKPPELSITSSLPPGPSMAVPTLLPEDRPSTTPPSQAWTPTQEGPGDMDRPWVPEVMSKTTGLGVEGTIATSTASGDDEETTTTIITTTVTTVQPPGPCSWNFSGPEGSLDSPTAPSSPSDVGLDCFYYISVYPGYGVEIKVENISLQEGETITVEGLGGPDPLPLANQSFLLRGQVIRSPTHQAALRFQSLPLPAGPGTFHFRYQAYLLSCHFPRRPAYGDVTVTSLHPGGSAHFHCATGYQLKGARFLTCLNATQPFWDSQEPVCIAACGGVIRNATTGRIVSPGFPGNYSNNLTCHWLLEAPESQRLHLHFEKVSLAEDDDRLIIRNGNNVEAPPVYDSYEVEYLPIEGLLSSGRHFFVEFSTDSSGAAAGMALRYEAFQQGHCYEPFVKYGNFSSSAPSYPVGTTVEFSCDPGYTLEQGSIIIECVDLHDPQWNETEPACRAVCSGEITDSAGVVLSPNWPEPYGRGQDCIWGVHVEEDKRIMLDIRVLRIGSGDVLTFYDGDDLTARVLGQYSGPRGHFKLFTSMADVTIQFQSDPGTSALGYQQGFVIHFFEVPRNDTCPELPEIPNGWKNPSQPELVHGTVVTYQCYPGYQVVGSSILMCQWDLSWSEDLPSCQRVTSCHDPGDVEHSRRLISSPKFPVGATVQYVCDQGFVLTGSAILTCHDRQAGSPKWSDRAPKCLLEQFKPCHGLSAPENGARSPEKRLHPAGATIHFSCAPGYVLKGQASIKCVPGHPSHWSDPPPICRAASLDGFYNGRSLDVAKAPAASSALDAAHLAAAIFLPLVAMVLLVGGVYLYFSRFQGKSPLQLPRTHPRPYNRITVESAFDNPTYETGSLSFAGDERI
Description: as §1, §2

SEZ6 ECD = molecular target: T2, SEZ6 ECD (Homo sapiens, UniProt Q53EL9); assay: Fine epitope mapping (phage display peptide library or yeast-displayed SEZ6 ECD mutants); conditions: epitope conformational (discontinuous) or linear
T2 construct: SEZ6 extracellular domain (amino acids 1-904); expressed in transfected cells; host or cells: yeast (surface display, Cochran et al. protocol)
Description: Epitopes were classified either as conformational (i.e. discontinuous) or linear. Yeast displaying the SEZ6 ECD construct was heat treated for 30 minutes at 80° C. in order to denature the antigen, washed twice in ice-cold PBSA and then subjected to the same staining protocol and flow cytometry analysis as described above. Antibodies that bound to both the denatured and native yeast were classified as binding to a linear epitope, whereas antibodies that bound native yeast but not denatured yeast were classified as conformationally specific.
Fine epitope mapping was further performed on selected antibodies to determine the specific amino acids to which they bound. Antibodies that bound to a linear epitope were mapped using the Ph.D.-12 phage display peptide library kit (New England Biolabs E8110S). The antibody selected for epitope mapping was coated onto a Nunc MaxiSorp tube (Nunc) at 50 μg/mL in 3 mL 0.1 M sodium bicarbonate solution, pH 8 and incubated overnight. The tube was blocked with 3% BSA solution in bicarbonate solution. Then, 10^11 input phage in PBS+0.1% Tween-20 was allowed to bind, followed by ten consecutive washes with 0.1% Tween-20 to wash away non-binding phage. Remaining phage were eluted with 1 mL 0.2 M glycine for 10 minutes at room temperature with gentle agitation, followed by neutralization with 150 μL 1 M Tris-HCl pH 9. Eluted phage were amplified and panned again with 10^11 input phage, using 0.5% Tween-20 during the wash steps to increase selection stringency. DNA from 24 plaques of the eluted phage from the second round was isolated using the Qiaprep M13 Spin kit (Qiagen) and sequenced. Binding of clonal phage was confirmed using an ELISA assay, where the mapped antibody or a control antibody was coated onto an ELISA plate, blocked, and exposed to each clone phage. Phage binding was detected using horseradish peroxidase conjugated anti-M13 antibody (GE Healthcare), and the 1-Step Turbo TMB ELISA solution (Pierce). Phage peptide sequences from specifically binding phage were aligned using Vector NTI (Life Technologies) against the antigen ECD peptide sequence to determine the epitope of binding.
Selected antibodies that bound to a discontinuous epitope were mapped using the technique described by Chao et al. (2007). Libraries of SEZ6 ECD mutants were generated with error prone PCR using nucleotide analogues 8-oxo-2′deoxyguanosine-5′-triphosphate and 2′-deoxy-p-nucleoside-5′triphosphate (both from TriLink Bio) for a target mutagenesis rate of one amino acid mutation per clone. These were transformed into a yeast display format. Using the technique described above for domain-level mapping, the library was stained for c-myc and antibody binding at 50 nM. […] These clones were re-grown, and subjected to another round of FACS sorting for loss of binding to the target antibody. Using the Zymoprep Yeast Plasmid Miniprep kit (Zymo Research), individual ECD clones were isolated and sequenced. Where necessary, mutations were reformatted as single-mutant ECD clones using the Quikchange site directed mutagenesis kit (Agilent).
Individual ECD clones were next screened to determine whether loss of binding was due to a mutation in the epitope, or a mutation that caused misfolding. Mutations that involved cysteine, proline, and stop codons were automatically discarded due to the high likelihood of a misfolding mutation. Remaining ECD clones were then screened for binding to a non-competing, conformationally specific antibody. ECD clones that lost binding to non-competing, conformationally specific antibodies were concluded to contain misfolding mutations, whereas ECD clones that retained equivalent binding as wild type SEZ6 ECD were concluded to be properly folded. Mutations in the ECD clones in the latter group were concluded to be in the epitope. […]

rat SEZ6 = assay: Flow cytometry cross reactivity, RIN-m5F cells; conditions: 5 μg/mL antibody
rat SEZ6, sequence (as listed by the source): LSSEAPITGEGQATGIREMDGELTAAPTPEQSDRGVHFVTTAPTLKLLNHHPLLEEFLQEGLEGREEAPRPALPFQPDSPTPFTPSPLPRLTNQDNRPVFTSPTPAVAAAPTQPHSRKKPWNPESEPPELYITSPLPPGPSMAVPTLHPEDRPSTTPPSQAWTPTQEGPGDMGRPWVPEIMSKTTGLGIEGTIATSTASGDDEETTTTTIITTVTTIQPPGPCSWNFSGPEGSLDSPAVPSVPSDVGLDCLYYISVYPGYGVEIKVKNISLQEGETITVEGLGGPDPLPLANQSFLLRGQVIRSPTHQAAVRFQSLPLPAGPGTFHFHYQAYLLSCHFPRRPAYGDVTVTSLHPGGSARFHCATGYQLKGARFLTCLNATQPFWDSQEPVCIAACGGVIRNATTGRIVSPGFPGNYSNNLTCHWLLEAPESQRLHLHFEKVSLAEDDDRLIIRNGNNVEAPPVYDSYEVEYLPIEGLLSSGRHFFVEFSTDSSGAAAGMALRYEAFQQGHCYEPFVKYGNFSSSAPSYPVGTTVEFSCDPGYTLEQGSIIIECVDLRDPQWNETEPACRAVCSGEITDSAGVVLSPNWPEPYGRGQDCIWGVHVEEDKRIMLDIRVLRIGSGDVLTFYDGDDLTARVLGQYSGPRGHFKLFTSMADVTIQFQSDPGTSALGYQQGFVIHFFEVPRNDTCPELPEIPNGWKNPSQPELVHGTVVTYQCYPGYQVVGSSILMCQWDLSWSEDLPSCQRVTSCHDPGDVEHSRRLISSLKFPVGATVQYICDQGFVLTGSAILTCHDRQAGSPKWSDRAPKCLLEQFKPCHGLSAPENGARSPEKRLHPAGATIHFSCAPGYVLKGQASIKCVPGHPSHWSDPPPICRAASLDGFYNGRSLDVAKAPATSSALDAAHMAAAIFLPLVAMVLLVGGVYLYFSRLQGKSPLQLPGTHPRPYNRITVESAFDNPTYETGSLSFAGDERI
Description: as §1, §2

[1] = molecular target: T3, human recombinant SEZ6-His (Homo sapiens, UniProt Q53EL9); assay: Affinity by bio-layer interferometry (ForteBio RED) or surface plasmon resonance (Biacore 2000); conditions: surface plasmon resonance
T3 construct: The cDNA fragment encoding the ECD of SEZ6 was amplified from the hSEZ6 cDNA clone; IgK signal peptide (N, cleaved yes); made in house; host or cells: HEK-293T and/or CHO-S
Description: Various methods were used to analyze the binding and immunochemical characteristics of selected SEZ6 modulators generated as set forth above. Specifically, a number of the antibody modulators were characterized as to affinity, binning, and cross reactivity with regard to human, cynomolgus, rat and mouse SEZ6 antigen along with SEZ6L and SEZ6L2 proteins by art-recognized methods including flow cytometry. Affinities and kinetic constants kon and koff of the selected modulators were measured using bio-layer interferometry analysis on a ForteBio RED (ForteBio, Inc.) or surface plasmon resonance using a Biacore 2000 each according to the manufacturer's instructions.
To verify the cross reactivity data above for rat SEZ6 and to determine the affinity and kinetic constants kon and koff of the selected effectors, either bio-layer interferometry analysis on a ForteBio RED (ForteBio, Inc.) or surface plasmon resonance on a Biacore 2000 (GE Healthcare) were conducted. Affinities were determined to both human recombinant SEZ6-His and rat recombinant SEZ6-His generated in Example 5.
Binding characteristics of the following humanized constructs from Example 8, hSC17.16, hSC17.17, hSC17.24, hSC17.28, hSC17.34 and hSC17.46, were analyzed in order to determine whether the CDR grafting process had appreciably altered their binding characteristics. The humanized constructs (CDR grafted) were compared with “traditional” chimeric antibodies comprising the murine parent (or donor) heavy and light chain variable domains and a human constant region substantially equivalent to that used in the humanized constructs. With these constructs surface plasmon resonance was conducted using a Biacore 2000 (GE Healthcare) to identify any subtle changes in rate constants brought about by the humanization process.

Molecule	binding affinity compared with corresponding murine or chimeric antibody [1]	other results
B1		cross reactivity to cynomolgus SEZ6 (cynomolgus SEZ6): cross reactive; cross reactivity to murine SEZ6 (mouse SEZ6): cross reactive; Discontinuous (SEZ6 ECD): No
B2		cross reactivity to rat SEZ6 (rat SEZ6): cross reactive; cross reactivity to murine SEZ6 (mouse SEZ6): cross reactive
B3	equivalent or better than the corresponding murine antibodies	
B4	equivalent or better than the corresponding murine antibodies	
B5	equivalent or better than the corresponding murine antibodies	
B6	equivalent or better than the corresponding murine antibodies	
B7	equivalent or better than the corresponding murine antibodies	
